# Source: article PMC11443449, “NudCL2 is required for cytokinesis by stabilizing RCC2 with Hsp90 at the midbody” (Protein & Cell, 2024)
# B1: GST-NudCL2 (natural protein, human, UniProt Q8WVJ2 1-157, looked up)
# chain: MSAPFEERSGVVPCGTPWGQWYQTLEEVFIEVQVPPGTRAQDIQCGLQSRHVALSVGGREILKGKLFDSTIADEGTWTLEDRKMVRIVLTKTKRDAANCWTSLLESEYAADPWVQDQMQRKLTLERFQKENPGFDFSGAEISGNYTKGGPDFSNLEK
# notes: NudC-like protein 2 (NudCL2, NudCD2), human; Li et al., 2019; Yang et al., 2010, 2019) for the vector; also called NudC-like protein 2; NudC domain-containing protein 2; source: Escherichia coli BL21, purified
# Target: T1, His-RCC2 (human, UniProt Q9P258 1-522)
# T1 construct: Regulator of chromosome condensation 2 (RCC2), human, full length, cloned by PCR from pSA-RCC2 into pET-28a; pET-28a (His-tag vector, Novagen); also called regulator of chromosome condensation 2; telophase disc protein of 60 kDa; source: Escherichia coli BL21, purified
# Assay: pull-down; GST pull-down with purified GST, GST-NudCL2 and His-RCC2; incubated in PBS at 4°C for 4 h, then glutathione-agarose beads for 2 h; Western blot
# Conditions: both partners purified
# T1 sequence (Q9P258 whole entry): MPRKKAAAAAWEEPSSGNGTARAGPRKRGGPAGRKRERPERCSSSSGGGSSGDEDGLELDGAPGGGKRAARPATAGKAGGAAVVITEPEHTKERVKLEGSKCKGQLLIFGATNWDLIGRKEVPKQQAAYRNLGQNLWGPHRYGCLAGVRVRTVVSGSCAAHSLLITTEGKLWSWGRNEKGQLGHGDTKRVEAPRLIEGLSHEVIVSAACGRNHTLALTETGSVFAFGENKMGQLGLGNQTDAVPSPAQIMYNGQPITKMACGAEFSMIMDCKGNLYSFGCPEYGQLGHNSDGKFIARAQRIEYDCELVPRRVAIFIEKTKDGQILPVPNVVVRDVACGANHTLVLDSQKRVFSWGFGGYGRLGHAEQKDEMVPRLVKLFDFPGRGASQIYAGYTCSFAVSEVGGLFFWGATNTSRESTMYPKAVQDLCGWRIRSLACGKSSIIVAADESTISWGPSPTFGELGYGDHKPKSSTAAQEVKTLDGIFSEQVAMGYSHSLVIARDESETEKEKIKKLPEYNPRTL
binder,measurement,value
B1,binding result,binds
